From patent publication US20200277377A1 (WUXI BIOLOGICS SHANGHAI, published 2020)
Where a chain is given by its changes, count along the chain named.

T1: full length human CTLA-4 on cells (human, UniProt P16410 36-223)
T1 construct: whole, on cells; also called CTLA-4-expressing cell line
T1 sequence (looked up): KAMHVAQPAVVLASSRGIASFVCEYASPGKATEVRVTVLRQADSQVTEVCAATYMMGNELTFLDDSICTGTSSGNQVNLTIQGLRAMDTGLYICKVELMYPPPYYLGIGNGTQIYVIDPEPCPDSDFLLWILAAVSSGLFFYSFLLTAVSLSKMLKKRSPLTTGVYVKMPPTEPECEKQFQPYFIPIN

T2: hCTLA4_ECD.His point mutant R75 to alanine (human, UniProt P16410 36-161)
T2 construct: extracellular domain; alanine-scan mutein, HEK293F supernatant
T2 sequence (looked up): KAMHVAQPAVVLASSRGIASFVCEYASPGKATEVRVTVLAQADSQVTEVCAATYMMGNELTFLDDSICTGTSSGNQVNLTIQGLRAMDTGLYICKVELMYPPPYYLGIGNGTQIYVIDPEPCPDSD

T3: hCTLA4_ECD.His point mutant M134 to alanine (human, UniProt P16410 36-161)
T3 construct: extracellular domain; alanine-scan mutein, HEK293F supernatant
T3 sequence (looked up): T2 sequence (looked up) with A40R, M99A

T4: hCTLA4_ECD.His point mutant P137 to alanine (human, UniProt P16410 36-161)
T4 construct: extracellular domain; alanine-scan mutein, HEK293F supernatant
T4 sequence (looked up): T2 sequence (looked up) with A40R, P102A

T5: hCTLA4_ECD.His point mutant P138 to alanine (human, UniProt P16410 36-161)
T5 construct: extracellular domain; alanine-scan mutein, HEK293F supernatant
T5 sequence (looked up): T2 sequence (looked up) with A40R, P103A

T6: hCTLA4_ECD.His (N145Q) (human, UniProt P16410 36-161)
T6 construct: extracellular domain; Glycosylation-site mutein, expressed in HEK293F cells; also called CTLA-4 N145Q
T6 sequence (looked up): T2 sequence (looked up) with A40R, N110Q

T7: human CTLA-4.ECD-6×His (human, UniProt P16410 36-161)
T7 construct: extracellular domain; also called WBP316.hCTLA-4.ECD-6×His; hCTLA4-His (WT)
T7 sequence: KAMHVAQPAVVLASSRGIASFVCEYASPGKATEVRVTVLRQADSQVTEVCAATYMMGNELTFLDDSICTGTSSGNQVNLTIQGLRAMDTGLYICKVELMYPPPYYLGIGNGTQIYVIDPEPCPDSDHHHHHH

B1: W3162-1.146.19-z12-uAb.IgG1K (antibody, V domains shown)
VH: QVQLQESGPGLVKPSETLSLTCSVTYHTITSGYDWTWIRKPPGKGMEWIGYISYSGNTNYNPSLKSRVTISRDTSKNQFFLKLSSVTAADTAVYYCASMMVPHYYVMDAWGQGTLVTVSS
VL: DIVMTQTPLSLSVTPGQPASISCRSSQSLLNSDGNTYLYWYLQKPGQSPQLLIYLVSKLGSGVPNRFSGSGSGTDFTLKISRVEAEDVGVYYCVQGTHDPWTFGGGTKVEIK
notes: Humanized; label says IgG1K
B2: W3162_1.154.8-z35-uAb.IgG1K (antibody, V domains shown)
VH: QVQLVQSGAEVKKPGSSVKVSCKASGYTFTNYFMNWVRQAPGQGLEWMGRVDPEQGRADYAEKFKKRVTITADKSTSTAYMELSSLRSEDTAVYYCARRAMDNYGFAYWGQGTLVTVSS
VL: EIVLTQSPDFQSVTPKEKVTITCSANSALSYMYWYQQKPDQSPKLWVHGTSNLASGVPSRFSGSGSGTDFTLTINSLEAEDAATYYCHHWSNTQWTFGGGTKVEIK
notes: Humanized; label says IgG1K

Columns and labels:
Murine CTLA-4.ECD-6×His = target: T8, Murine CTLA-4.ECD-6×His (mouse, UniProt P09793 36-161); assay: ELISA, coated mouse CTLA-4.ECD-6×His
T8 construct: extracellular domain; Bought; also called mouse CTLA-4.ECD-6×His; mouse CTLA-4 ECD
Experimental: ELISA was used to test binding of anti-human CTLA-4 antibodies to human, murine and cynomolgus monkey CTLA-4 protein. A 96-well plate was coated with human CTLA-4.ECD-6×His (1.0 μg/mL), cynomoguls monkey CTLA-4.ECD-6×His (0.5 μg/mL) or mouse CTLA-4.ECD-6×His (0.5 μg/mL) at 4° C. for 16-20 hours. After 1 hour blocking with 2% BSA in DBPS, testing antibodies, as well as positive and negative control antibodies were added to the plates and incubated at room temperature for 1 hour. The binding of the antibodies to the plates were detected by HRP-conjugated goat anti-human IgG antibody (1:5000 dilution) with 1 hour incubation. The color was developed by dispensing 100 μL of TMB substrate for 8 mins, and then stopped by 100 μL of 2N HCl.

[1] = target: T1, full length human CTLA-4 on cells; assay: flow cytometry affinity on cells expressing human CTLA-4
Experimental: Briefly, HEK293 cells expressing human CTLA-4 were transferred in to 96-well U-bottom plates (BD) at a density of 5×10⁴ cells/well. Testing antibodies were 1:2-fold serially diluted in PBS with 1% BSA and incubated with cells at 4° C. for 1 hour. After centrifugation at 1500 rpm for 4 min, the supernatant was discarded. The secondary antibody, FITC conjugated goat anti-human IgG Fc (3.2 FITC per IgG, Jackson Immunoresearch Lab), was added to re-suspend cells to final concentration 14 μg/ml, and incubated at 4° C. in the dark for 30 min. The cells were then washed once and re-suspended in PBS with 1% BSA, and analyzed by flow cytometery (BD). Fluorescence intensity was converted to bound molecules/cell based on the quantitative beads (Quantum™ MESF Kits, Bangs Laboratories). KD was calculated using Graphpad Prism5.
The affinity of humanized antibodies binding to cell surface CTLA-4 was measured by flow cytometry method, modified from Benedict's method [Benedict 1997 JIM].

[2] = target: T2, hCTLA4_ECD.His point mutant R75 to …; assay: capture ELISA, alanine scan, vs silent alanine substitutions
Experimental: (§1) In order to test how the mutations affect antibody-binding, a capture ELISA was conducted. […] After interacting with the supernatant that contains quantified CTLA4 muteins, HRP conjugated anti-His antibody (1:5000; Rockland Immunochemicals, Pottstown, Pa.) was added as detection antibody. TMB was used as substance of HRP. Absorbance was normalized according to the average of control mutants. After setting an additional cutoff to the binding fold change (<0.55), the final determined epitope residues were identified.

[3] = target: T3, hCTLA4_ECD.His point mutant M134 to …; assay: as above
Experimental: as §1

[4] = target: T4, hCTLA4_ECD.His point mutant P137 to …; assay: as above
Experimental: as §1

[5] = target: T5, hCTLA4_ECD.His point mutant P138 to …; assay: as above
Experimental: as §1

hCTLA4_ECD.His (N145Q) = target: T6, hCTLA4_ECD.His (N145Q); assay: capture ELISA: W3162-1.146.19-z12 captured on anti-human Fc, hCTLA4-His mutein supernatant titrated (ng/ml), HRP-anti-His [B]
human CTLA-4.ECD-6×His = target: T7, human CTLA-4.ECD-6×His; assay: capture ELISA: W3162-1.154.8-z35 captured on anti-human Fc, hCTLA4-His supernatant titrated (ng/ml), HRP-anti-His [C]

Binder | EC50 (Murine CTLA-4.ECD-6×His) [nM] | Kd [1] [nM] | Fold change [2] [fold] | Fold change [3] [fold] | Fold change [4] [fold] | Fold change [5] [fold] | EC50 (read off the curve) (hCTLA4_ECD.His (N145Q)) [µg/mL] | EC50 (read off the curve) (human CTLA-4.ECD-6×His) [µg/mL]
B1 | 0.19 | 5 | 0.278 | 0.254 | 0.425 | 0.445 | ~0.09 | 
B2 |  | 0.35 | 0.298 | 0.455 | 0.534 | 0.339 |  | ~0.003
